Columns and labels:
[1] = target: T1, His-tagged human HER3 extracellular domain (Acro ER3-H5223) (human, UniProt P21860 20-643); assay: BLI, antibody on AHC tips, monomeric HER3 ECD in solution, 1:1 fit
T1 construct: extracellular domain; Monomeric, in solution; not shown: His tag

[2] = target: T2, biotinylated human EGFR extracellular domain (Acro EGF-H82E3) (human, UniProt P00533 25-645, biotinylated (site not stated)); assay: BLI avidity format, biotinylated EGFR ECD on SA sensors, antibody in solution, 1:1 fit
T2 construct: extracellular domain; Loaded onto streptavidin (SA) sensors; also called immobilized EGFR

[3] = target: T3, human His-tagged HER3 extracellular domain (in-house expressed) (human, UniProt P21860 20-643); assay: BLI sandwich assay, antibody held on immobilized biotinylated EGFR, 500 nM HER3 ECD in solution, 1:1 fit
T3 construct: extracellular domain; also called HER3 ECD (in-house expressed); not shown: His tag

[4] = target: T4, His-tagged human EGFR extracellular domain (expressed and purified in-house) (human, UniProt P00533 25-645); assay: BLI, antibody on AHC tips, monomeric EGFR ECD in solution, 1:1 fit
T4 construct: extracellular domain; Monomeric, in solution; also called EGFR (purified in-house); not shown: His tag

[5] = target: T1, His-tagged human HER3 extracellular …; assay: BLI (Octet), antibody captured on AHC sensors; tandem: 100 nM EGFR 720 s, then 100 nM EGFR + 400 nM HER3 720 s, then buffer; EGFR+HER3 step
[6] = target: T3, human His-tagged HER3 extracellular …; assay: BLI sandwich assay, antibody held on immobilized EGFR, HER3 ECD in solution

B1: SI-71X14, bispecific tetravalent anti-EGFR x HER3 antibody (humanized cetuximab IgG with MM-111 anti-HER3 scFv at the C-terminus of each heavy chain) (bispecific antibody)
heavy: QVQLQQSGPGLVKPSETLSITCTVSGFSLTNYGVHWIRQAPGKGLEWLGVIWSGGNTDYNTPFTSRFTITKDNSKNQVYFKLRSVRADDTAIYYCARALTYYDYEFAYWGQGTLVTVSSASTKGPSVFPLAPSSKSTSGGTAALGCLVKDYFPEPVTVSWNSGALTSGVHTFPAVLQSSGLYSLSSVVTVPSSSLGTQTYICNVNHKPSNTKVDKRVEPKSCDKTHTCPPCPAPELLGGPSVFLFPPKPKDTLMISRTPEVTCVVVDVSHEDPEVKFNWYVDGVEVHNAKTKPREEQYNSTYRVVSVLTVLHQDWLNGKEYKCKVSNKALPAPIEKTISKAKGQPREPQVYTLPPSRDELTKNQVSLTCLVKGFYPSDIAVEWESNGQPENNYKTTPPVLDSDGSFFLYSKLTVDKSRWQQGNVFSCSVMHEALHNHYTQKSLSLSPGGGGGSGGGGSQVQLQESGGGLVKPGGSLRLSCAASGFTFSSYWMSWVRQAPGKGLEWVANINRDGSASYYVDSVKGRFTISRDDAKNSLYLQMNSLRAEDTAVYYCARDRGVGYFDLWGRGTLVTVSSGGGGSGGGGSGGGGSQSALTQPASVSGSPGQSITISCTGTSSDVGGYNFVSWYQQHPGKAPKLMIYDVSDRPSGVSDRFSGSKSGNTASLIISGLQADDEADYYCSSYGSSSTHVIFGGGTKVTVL
light: EIVLTQSPSTLSVSPGERATFSCRASQSIGTNIHWYQQKPGKPPRLLIKYASESISGIPDRFSGSGSGTEFTLTISSVQSEDFAVYYCQQNNNWPTTFGPGTKLTVLRTVAAPSVFIFPPSDEQLKSGTASVVCLLNNFYPREAKVQWKVDNALQSGNSQESVTEQDSKDSTYSLSSTLTLSKADYEKHKVYACEVTHQGLSSPVTKSFNRGEC
notes: VH position 85 (Kabat) is D instead of cetuximab's N
[1]
  Kd: 117 nM
  koff: 0.0308 s⁻¹
  kon: 265000 M⁻¹ s⁻¹
[2]
  Kd: < 0.001 nM
  koff: < 1e-07 s⁻¹
  kon: 353000 M⁻¹ s⁻¹
[3]
  Kd: 922 nM
  koff: 0.07 s⁻¹
  kon: 75900 M⁻¹ s⁻¹
[4]
  Kd: 4.61 nM
  koff: 0.00122 s⁻¹
  kon: 264000 M⁻¹ s⁻¹

B2: SI-1C5 (nimotuzumab-based anti-EGFR monoclonal antibody) (antibody, V domains shown)
VH: QVQLQQSGAEVKKPGSSVKVSCKASGYTFTNYYIYWVRQAPGQGLEWIGGINPTSGGSNFNEKFKTRVTITVDESTNTAYMELSSLRSEDTAFYFCARQGLWFDSDGRGFDFWGQGSTVTVSS
VL: DIQMTQSPSSLSASVGDRVTITCRSSQNIVHSNGNTYLDWYQQTPGKAPKLLIYKVSNRFSGVPSRFSGSGSGTDFTFTISSLQPEDIATYYCFQYSHVPWTFGQGTKLQITR
[4]
  Kd: 15.8 nM
  koff: 0.00178 s⁻¹
  kon: 113000 M⁻¹ s⁻¹

B3: SI-71M1, humanized cetuximab monoclonal antibody (antibody, human IgG1, kappa, V domains shown)
VH: QVQLQQSGPGLVKPSETLSITCTVSGFSLTNYGVHWIRQAPGKGLEWLGVIWSGGNTDYNTPFTSRFTITKDNSKNQVYFKLRSVRADDTAIYYCARALTYYDYEFAYWGQGTLVTVSS
VL: EIVLTQSPSTLSVSPGERATFSCRASQSIGTNIHWYQQKPGKPPRLLIKYASESISGIPDRFSGSGSGTEFTLTISSVQSEDFAVYYCQQNNNWPTTFGPGTKLTVLR
notes: also called Hu-Cetuximab; humanized cetuximab mAb
[5]
  binding result: no binding (tested: 400 nM)
[6]
  binding result: no binding (tested: 500 nM)
[2]
  Kd: < 0.001 nM
  koff: < 1e-07 s⁻¹
  kon: 466000 M⁻¹ s⁻¹
[4]
  Kd: 4.76 nM
  koff: 0.0013 s⁻¹
  kon: 272000 M⁻¹ s⁻¹
